According to patent US7399747B1, “Peptides carrying substances across the blood brain barrier” (SYNT:EM, priority 1998, dated 2008):
“Also recorded” adds a separate entry of the source. Each block holds one compound with its values, some of them ahead of it. *1 amine or outer side, *2 acyl side, *3 side chain or, on linkers, in order; H or OH if unused. Where a SMILES comes first, the peptide text is derived from it. Where no end group is shown, it is not given here. The star is where a group is joined. Doxorubicin(3'-N) = COc1cccc2c1C(=O)c1c(O)c3c(c(O)c1C2=O)C[C@@](O)(C(=O)CO)C[C@@H]3O[C@H]1C[C@H](N*)[C@H](O)[C@H](C)O1; Suc = O=C(CCC(=O)[*:2])[*:1]

Key:
[1] = Capillary depletion after cerebral perfusion and rinsing (distribution volume Vd); assay type: in vivo, rat
Method: This method is used to measure the distribution of products between the cerebral parenchyma and endothelial cells, Triguero et al., 1990, J. Neurochem. 54, 1882-1888). After 60 seconds of perfusion, that may or may not be followed by 30 seconds rinsing, the right hemisphere is removed, its meninges and choroid plexus are removed, and it is then homogenized in 3.5 ml of Hepes buffer (10 mM of Hepes, 141 mM of NaCl, 4 mM of KCl, 1 mM of NaH2PO4, 2.8 mM of CaCl2, 1 mM of MgSO4 and 10 mM of D-glucose, pH=7.4). After grinding in the potter, 4 ml of solution containing 4% of Dextran (PM=76900) are added and the mix is stirred vigorously in order to obtain a […]. All these operations are carried out at 4° C. in less than 5 minutes. After taking a sample of the homogenate thus obtained, the homogenate is then put into the centrifuge for 15 minutes at 5400 g in order to separate the endothelial cells present in the base of the cerebral parenchyma that remained in the floating material. The results are expressed as distribution volumes in the floating material and the base.
This method measures the distribution of products between the cerebral parenchyma and endothelial cells. Capillary depletion is carried out after 60 seconds perfusion followed by 30 seconds rinsing. The distribution volumes (Vd) in endothelial cells and the cerebral parenchyma are expressed in microliters/g.

[2] = In situ cerebral perfusion, penetration into the brain (influx constant Kin); assay type: in vivo, rat
Method: The rats are perfused with the buffer containing free doxorubicin or compounds No. 1 or 2. The doxorubicin is radio-marked with carbon 14 in each product (specific activity=9.4 microCi/mg, Amersham, France). The products are perfused at a concentration of 0.33 microCi/ml or 0.035 mg/rat.
The heart is stopped by cutting the ventricles immediately before perfusion starts, in order to prevent reflux of the perfusate during the perfusion.
The brain is removed quickly after decapitation. The brain is dissected on a mirror into 8 regions, namely Hypothalamus (HY), frontal Cortex (CF), Mesencephale (MS), Occipital Cortex (CO), Parietal Cortex (CP), Thalamus (TH), Hippocampus (HP), Striatum (ST), which are placed in previously calibrated glass flasks and then weighed. These structures and 50 microliters of perfusate are digested for two hours in 1 ml of soluene at 60° C. A scintillating cocktail (10 ml, Pico-fluor, Packard) is added to each sample and the quantity of tracers contained in them is measured by double counting in liquid scintillation (Packard, Tricarb, 1900TR).
This study consisted of comparing penetration in the HEB of doxorubicin alone with doxorubicin using compounds numbers 1 and 2 as vectors. After 60 seconds perfusion in the buffer, the penetration of products was estimated using the influx constant or Kin in microl/sec/g. […]

[3] = Hot Plate model (latency time); assay type: in vivo, mouse; details: for Latency time: 2 mg/Kg i.v. (dalargine equivalent), 5 minutes after injection; for Effect on latency time / analgesic activity: i.v. injection, latency measured 0 to 90 minutes
Method: For the purposes of this study, the biological activity of dalargine alone was compared with the biological activity of dalargine vectorised with SynB1. Consequently, the “Hot Plate” model in the mouse was used. In this model, the mouse is placed on a hot plate and the time that the mouse takes to react to heat is measured as the “latency time”.
2 mg/Kg of each product was injected intravenously into the mouse (the dose corresponding to the quantity of dalargine). After times varying from 0 to 90 minutes, the latency time was measured. […] The latency time is constant. […] For example 5 minutes after injection, the latency time of vectorised dalargine is 22.75 seconds, whereas it is only 7.6 seconds for dalargine alone.

[4] = Intravenous injection in CD1 mice, whole-body autoradiography, brain; details: i.v. 2 mg DXR base/kg
Method: In the case of compound No. 2, the CD1 mouse is injected intravenously with compound No. 2 or with free doxorubicin at a dose of 2 mg/kg (equivalent in doxorubicin). Doxorubicin is marked with carbon 14 (about 3 microCi is injected per mouse). The mouse is sacrificed after 15 minutes, 2 hours and 8 hours, and the product quantity in each organ is analysed using the “Whole-body autoradiography” technique. The quantity of radioactivity in each organ is then expressed as a quantity of product per gram of organ. We used one mouse per group in this experiment.
The total radioactivity in the brain is analysed using the “Whole body autoradiography” method and is expressed as a product quantity per gram of brain.

[5] = Intravenous injection in NMRI-nude mice, radioactivity in the brain; details: for Product quantity in brain: i.v. 2.5 mg DXR base/kg
Method: NMRI-nude mice are injected intravenously with compound No. 1 or doxorubicin alone at a dose of 2.5 mg/kg (equivalent in doxorubicin). The doxorubicin is marked with carbon 14 (about 0.5 microCi is injected per mouse). The mice are sacrificed after 1, 5, 15, 30, 60, 180, 480 and 1360 minutes. The organs are then removed and counted. The quantity of radioactivity in each organ is then expressed as the quantity of product per gram of organ. In this study, we used five mice for each period of time.
After intravenous injection of compound No. 1, nude mice were sacrificed at different times and the total radioactivity in the brain was counted and expressed as a quantity of product per gram of brain.

HEB = experiment: Tolerance to products: integrity of HEB by [3H]-sucrose distribution volume during in situ cerebral perfusion; details: co-perfused with [3H]-sucrose
Source text: This is a fast and sensitive method of evaluating the penetration of various compounds into the central nervous system (Takasato et al., 1984, Am. J. Physiol. 247, 484-493; Allen et al., 1997, Pharm Res. 14, 337-341). Two month old male Sprague-dawley rats (250-350 g. Iffa-Credo; l'Arbresle, France) are anaesthetised. After exposure of the common carotid, the right external carotid artery is bound at the junction with the internal carotid and the common carotid is bound between the heart and the site at which the catheter is installed (polyethylene catheter, ID=0.76). This catheter, previously filled with a solution of heparin (100 units/ml) is inserted into the common carotid. Rats are perfused with the perfusion buffer (128 mM NaCl, 24 mM NaHCO3, 4.2 mM KCl, 2.4 mM NaH2PO4, 1.5 mM CaCl2, 0.9 mM MgSO4, and 9 mM D-glucose). This buffer is filtered and then is bubbled using a mix containing 95% O2/5% CO2 in order to keep the pH close to 7.4 and to supply oxygen to the brain during the perfusion.
It is estimated that this volume must not exceed […]. For larger volumes, it is concluded that the permeability of HEB is abnormal.
Doxorubicin, compounds numbers 1 and 2 were injected in the presence of sucrose and the integrity of the HEB is measured.

[6] = for Reduction of the influx constant after rinsing: 60 s perfusion then 30 s rinsing with buffer without tracer
Method: For rats on which the rinsing step is carried out, the catheter is inserted into the common carotid as described above, and is then connected to a 4-way valve (opposite passages) (Hamilton, USA) connected to two syringes; one containing the radio-marked tracer (syringe A) and the other the buffer alone (syringe B). Once the catheter is in position and the connections have been made correctly, the thoracic cage of the rat is opened and the heart is cut. The contents of syringe A are then immediately perfused at a rate of 10 ml/min. After 60 seconds, the contents of syringe B are injected in turn at the same rate. The rat is decapitated after 30 seconds of rinsing.
Rinsing of cerebral capillaries by perfusion of the buffer without tracer for 30 seconds eliminates the fraction of the product being studied adhering to the luminal membrane of endothelial cells, if any.

[7] = 60 seconds perfusion followed by 30 seconds rinsing

Compound: COc1cccc2c1C(=O)c1c(O)c3c(c(O)c1C2=O)C[C@@](O)(C(=O)CO)C[C@@H]3O[C@H]1C[C@H](NC(=O)CCC(=O)N[C@@H](CCCNC(=N)N)C(=O)N[C@@H](CCCNC(=N)N)C(=O)N[C@@H](CC(C)C)C(=O)N[C@@H](CO)C(=O)N[C@@H](Cc2ccc(O)cc2)C(=O)N[C@@H](CO)C(=O)N[C@@H](CCCNC(=N)N)C(=O)N[C@@H](CCCNC(=N)N)C(=O)N[C@@H](CCCNC(=N)N)C(=O)N[C@@H](Cc2ccccc2)C(=O)O)[C@H](O)[C@H](C)O1 [No. 5, Doxo-CO—(CH2)2—CO-RRLSYSRRRF] ({Doxorubicin(3'-N)-Suc}-RRLSYSRRRF-OH)
Penetration in the cerebral parenchyma compared with free doxorubicin [1, 7]: 50 times | Vd in the cerebral parenchyma [1, 7]: 98.32 µL/g | Increase of transfer into the brain (Kin) compared with doxorubicin alone ([2]; 60 seconds perfusion in the buffer): five times

Compound: Y-(D)A-GFLR [dalargine, reference compound]
Latency time [3]: 7.6 s | Effect on latency time / analgesic activity [3]: no effect was observed

Compound: RGGRLSYSRRRFSTSTGR (PEPTIDE (1)..(18) Syn B1) [SynB1]
Effect on latency time / analgesic activity [3]: no analgesic activity

Vd in the cerebral parenchyma ([1]; 30 seconds perfusion followed by 30 seconds rinsing): 3.94 µL/g
Compound: CC1(C)S[C@@H]2[C@H](NC(=O)Cc3ccccc3)C(=O)N2[C@H]1C(=O)O [benzylpenicillin, Benzylpenicillin, reference compound]

Product quantity in brain ([4]; 15 min): 1.24 ug/g of brain | Product quantity in brain ([4]; 120 min): 0.98 ug/g of brain | Product quantity in brain ([4]; 480 min): 0.67 ug/g of brain | Vd in the cerebral parenchyma [1, 7]: 1.75 µL/g | Product quantity in brain ([5]; 1 min): 0.14 microg/g of brain | Product quantity in brain ([5]; 5 min): 0.05 microg/g of brain | Product quantity in brain ([5]; 15 min): 0.04 microg/g of brain | Product quantity in brain ([5]; 30 min): 0.05 microg/g of brain | Product quantity in brain ([5]; 60 min): 0.04 microg/g of brain | Product quantity in brain ([5]; 180 min): 0.03 microg/g of brain | Product quantity in brain ([5]; 480 min): 0.04 microg/g of brain | Product quantity in brain ([5]; 1360 min): 0.01 microg/g of brain | Reduction of the influx constant after rinsing [6]: about 25%
Compound: COc1cccc2c1C(=O)c1c(O)c3c(c(O)c1C2=O)C[C@@](O)(C(=O)CO)C[C@@H]3O[C@H]1C[C@H](N)[C@H](O)[C@H](C)O1 [doxorubicin, Doxorubicin, reference compound]
State of the HEB (HEB; perfused dose 0.07 mg): Integral

Compound: Y-(D)A-GFLR-S-S-RGGRLSYSRRRFSTSTGR [dal-SynB1]
Latency time [3]: 22.75 s | Effect on latency time / analgesic activity [3]: an increase in the latency time is observed | Transfer into the brain (Kin) compared with dalargine alone ([2]; 60 seconds perfusion in the buffer (FIG. 7)): considerably increases its transfer into the brain

Compound: Doxo-CO—(CH2)2—CO-RGGRLSYSRRRFSTSTGR ({doxorubicin-Suc}-RGGRLSYSRRRFSTSTGR) [Compound No. 1]
Vd in the cerebral parenchyma [1, 7]: 28.5 µL/g | Fraction of compound found in the cerebral parenchyma ([1]; 1 minute perfusion followed by 30 seconds rinsing): About 60% | Ratio of compound No. 1/doxorubicin (brain quantity) ([5]; 1 min after i.v. injection): 3.4 | Ratio of compound No. 1/doxorubicin (brain quantity) ([5]; 5 min after i.v. injection): 3.6 | Ratio of compound No. 1/doxorubicin (brain quantity) ([5]; 15 min after i.v. injection): 10.5 | Ratio of compound No. 1/doxorubicin (brain quantity) ([5]; 30 min after i.v. injection): 5 | Ratio of compound No. 1/doxorubicin (brain quantity) ([5]; 60 min after i.v. injection): 3 | Ratio of compound No. 1/doxorubicin (brain quantity) ([5]; 180 min after i.v. injection): 1 | Product quantity in brain ([5]; 1 min): 0.48 microg/g of brain | Product quantity in brain ([5]; 5 min): 0.18 microg/g of brain | Product quantity in brain ([5]; 15 min): 0.42 microg/g of brain | Product quantity in brain ([5]; 30 min): 0.25 microg/g of brain | Product quantity in brain ([5]; 60 min): 0.12 microg/g of brain | Product quantity in brain ([5]; 180 min): 0.03 microg/g of brain | Product quantity in brain ([5]; 480 min): 0.02 microg/g of brain | Product quantity in brain ([5]; 1360 min): 0.01 microg/g of brain | State of the HEB (HEB; perfused dose 0.05 mg): Integral | State of the HEB (HEB; perfused dose 0.8 mg): does not open the HEB abnormally; also recorded: Integral | Increase of penetration after rinsing compared with free doxorubicin (factor) ([6]; 60 s perfusion then 30 s rinsing): 4 | Reduction of the influx constant after rinsing [6]: 45%
